Assays:
human glucagon [1] = biological target: human glucagon (human); test: cell-based or functional assay
human glucagon [2] = biological target: T1, human glucagon (human); test: SPR Biacore 4000, antibody captured by anti-human Fc, GCG injected, 25 C
T1 construct: Bought peptide (Phoenix Pharmaceuticals, #028-02); 29 residue hormone; also called GCG; human GCG
Description: (§1) Experiments were performed at 25° C. and 37° C.
(§2) Kinetic association (kₐ) and dissociation (kd) rate constants were determined by processing and fitting the data to a 1:1 binding model using Scrubber 2.0c curve fitting software. Binding dissociation equilibrium constants (KD) and dissociative half-lives (t½) were calculated from the kinetic rate constants as: […]

human glucagon [3] = biological target: T1, human glucagon; test: SPR Biacore 4000, antibody captured by anti-human Fc, GCG injected, 37 C
Description: as §1, §2

T1 sequence (peptide, as listed by the source): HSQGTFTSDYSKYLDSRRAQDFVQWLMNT

Binder | IC50, inhibition of GCG activation of HEK293/CRE-luc/hGCGR cells (luciferase reporter, 40 pM GCG) (human glucagon [1]) | Kd (human glucagon [2]) | koff (human glucagon [2]) | kon (human glucagon [2]) | t½ (human glucagon [2]) | Kd (human glucagon [3]) | koff (human glucagon [3]) | kon (human glucagon [3]) | t½ (human glucagon [3])
H1H059P (antibody, V domains shown, The antibody was captured by an anti-human Fc antibody in SPR) VH: QVQLVESGGGVVQPGRSLRLSCAASGFAFSNYGMHWVRQAPGKGLEWVTFISYDGSNKYYADSVKGRFTISRDNSKNTLYLQVNSLRAEDTAVYYCAKEAVLAALFDYWGQGTLVTVSS VL: not shown | 9.1e-10 M | 0.715 nM | 0.00178 s⁻¹ | 2.5e+06 M⁻¹ s⁻¹ | 6 min | 4.78 nM | 0.0236 s⁻¹ | 4.9e+06 M⁻¹ s⁻¹ | 0.5 min
H4H10232P (antibody, V domains shown) VH: QVQLVESGGGVVQPGRSLRLSCVASGFTFRNYDMHWVRQAPGKGLEWVAVTSSDGLNKFYSDSVKGRFTISRDNSKNTLSLQITGLRAEDTAVYYCAKESILAALFDYWGQGTLVTVSS VL: not shown | 2.3e-11 M | 0.0724 nM | 0.000231 s⁻¹ | 3.19e+06 M⁻¹ s⁻¹ | 50 min | 0.318 nM | 0.00147 s⁻¹ | 4.61e+06 M⁻¹ s⁻¹ | 8 min
H4H10238P (antibody, V domains shown) VH: QVQLVESGGGVVQPGRSLRLSCAASGFTFSSYGMHWVRQAPVKGLEWVAFISNDKSNKYYADSLKGRFTISRDNSKNTLYLQMNSLTAEDTAVYYCAKESILAALFDYWGQGTLVTVSS VL: not shown | 1.8e-11 M | 0.16 nM | 0.00062 s⁻¹ | 3.89e+06 M⁻¹ s⁻¹ | 19 min | 0.555 nM | 0.00274 s⁻¹ | 4.94e+06 M⁻¹ s⁻¹ | 4 min
H4H10236P (antibody, V domains shown) VH: QVQLVESGGGVVQPGRSLRLSCAASGFTFSSYGMHWVRQTPGKGLEWVAFISYDGNNKYYADSVKGRFTISRDNSKNTLFLQMNSLRAEDTAVYYCAKESILAALFDYWGQGTLVTVSS VL: not shown | 2.5e-10 M | 0.242 nM | 0.000746 s⁻¹ | 3.08e+06 M⁻¹ s⁻¹ | 15 min | 2.08 nM | 0.0088 s⁻¹ | 4.25e+06 M⁻¹ s⁻¹ | 1 min
H4H10256P (antibody, V domains shown) VH: QVQLVESGGGVVQPGRSLRLSCAASGFTFRTYGMHWVRQAPVKGLEWVAFISKDGSDKYYVDSVKGRFTISRDNSKNTLFLQMNSLTAEDTAVYYCAKESILAALFDYWGQGTLVTVSS VL: not shown | 1.8e-11 M | 0.0753 nM | 0.000582 s⁻¹ | 7.72e+06 M⁻¹ s⁻¹ | 20 min | 0.314 nM | 0.00248 s⁻¹ | 7.9e+06 M⁻¹ s⁻¹ | 5 min
H4H10250P (antibody, V domains shown) VH: QVQLVESGGGVVQPGRSLRLSCAASGFTFSSYGMHWVRQAPVKGLEWVAFISFDGSNKYYTDSVKGRFTISRDNSKNTLYLQMNSLTAEDTAIYYCAKESILAALFDYWGQGTLVTVSS VL: DIVMTQSPDSLAVSLGERATINCKSSQSVLYSSNNKNYLAWYQQKPRQPPNLLIYWASIRESGVPDRFSGSGSGTDFTLTISSLQAEDVAFYYCQQFYSIPTFGQGTKLEIK | 3.4e-11 M | 0.283 nM | 0.000939 s⁻¹ | 3.32e+06 M⁻¹ s⁻¹ | 12 min | 1.27 nM | 0.00708 s⁻¹ | 5.58e+06 M⁻¹ s⁻¹ | 2 min
H4H10231P (antibody, V domains shown) VH: QVQLVESGGGVVQPGRSLRLSCAASGFTFSTFGMHWVRQAPVKGLEWVAFISNDKNNKFYADSVKGRFTISRDNSRDTLYLQMNSLTPEDTAVYYCAKESILAALFDYWGQGTLVTVSS VL: not shown | 7.3e-12 M | 0.0927 nM | 0.000685 s⁻¹ | 7.39e+06 M⁻¹ s⁻¹ | 17 min | 1.01 nM | 0.00245 s⁻¹ | 2.4e+06 M⁻¹ s⁻¹ | 5 min
H4H10270P (antibody, V domains shown) VH: QVQLVESGGGVVQPGRSLRLSCAASGFTFSSYGMHWVRQAPVKGLEWVAFISNDKSNKYYADSVKGRFTISRDNSKNTLYLQMNSLTAEDTAVYYCAKESILAALFDSWGQGTLVTVSS VL: DIVMTQSPDSLAVSLGERATINCKSSQSVLYSSNNKNYLAWYQQKPRQPPKLLIYWASIRESGVPDRFSGSGSGADFTLTISSLQAADVAVYYCQQFYSVPTFGQGTKLEIK | 2.2e-11 M | 0.153 nM | 0.000732 s⁻¹ | 4.8e+06 M⁻¹ s⁻¹ | 16 min | 0.559 nM | 0.00378 s⁻¹ | 6.77e+06 M⁻¹ s⁻¹ | 3 min
H4H10237P (antibody, V domains shown) VH: QVQLVESGGGVVQPGRSLRLSCAASGFTFSSYGMHWVRQAPVKGLEWVAFISYDGSNKYYADSVKGRFTISRDNSKNTLYLQMNSLTAEDTAVYYCAKESILAALFDYWGQGTLVTVSS VL: not shown | 3.4e-11 M | 0.208 nM | 0.00103 s⁻¹ | 4.96e+06 M⁻¹ s⁻¹ | 11 min | 0.907 nM | 0.00683 s⁻¹ | 7.53e+06 M⁻¹ s⁻¹ | 2 min
H4H10223P (antibody, V domains shown, Kappa light chain variable region) VH: QVQLVESGGGVVQPGRSLRLSCAASGFTFNTYGMHWVRQAPVKGLEWVAFISNDKSNTFYADSVKGRFTISRDNSKNTLFLEMNSLTAEDTAVYYCAKESILAALFDYWGQGTLVTVSS VL: not shown | 9.5e-12 M | 0.0578 nM | 0.000541 s⁻¹ | 9.36e+06 M⁻¹ s⁻¹ | 21 min | 0.347 nM | 0.00223 s⁻¹ | 6.4e+06 M⁻¹ s⁻¹ | 5 min

Reference: US20160075778A1 (Regeneron, published 2016)
